Measurements reported in PMC10760634 (Genes & Development, 2023).

Molecular target: UBE2D2 (wild type) (UniProt P62837 1-147)
Assay: ITC

Chain of UBE2D2 (wild type) (P62837 whole entry): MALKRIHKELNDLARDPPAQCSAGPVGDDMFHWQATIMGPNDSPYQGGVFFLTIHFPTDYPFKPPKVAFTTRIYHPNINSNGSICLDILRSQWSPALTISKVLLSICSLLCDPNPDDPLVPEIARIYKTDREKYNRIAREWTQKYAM

B1: PHF7 (mPHF7 28–307) (domain or fragment)
chain: SSSPVCLLCLQEPGDPEKLGEFLQKDNLCVHYFCLILSSRLPQKGQPNRGLHGFMPEDIKREAVRASKKICFVCKKKGAAIRCQNDQCVQNFHLPCGQERGCLSQFFGEYKSYCRKHRPTQNIHQGSLGEESCVLCCENLSRTSVENIQSPCCSQAIYHRKCIQKYAHTSAKHFFKCPQCNNREEFPQEMLRMGIHIPDRDAAWELEPGAFSELYQRYRHCDAPICLYEQGRDSFEDEGRWRLILCATCGSHGTHRDCSSLRPNSKKWECNECLPASTTS
modifications: RED-NHS dye label (in the MST assay only)
**Q.** Does B1 bind?
**A.** binds
